From patent publication US20220348661A1 (HARBOUR BIOMED SHANGHAI, published 2022)

B1: PR000511 (antibody, human IgG1, lambda, L234A L235A, V domains shown)
VH: EVQLLESGGGLVQPGGSLRLSCAASGFTFNTYAMNWVRQAPGKGLEWVSRIRSKYNNYATYYADSVKDRFTISRDDSKSTLYLQMNSLRAEDTAVYYCVRHGNFGNSYVSWFAYWGQGTLVTVSS
VL: QAVVTQEPSLTVSPGGTVTLTCRSSTGAVTTSNYANWVQQKPGQAPRGLIGGTNKRAPWTPARFSGSLLGDKAALTLLGAQPEDEAEYFCALWYSNLWVFGGGTKLTVLG
notes: humanized SP34 variant, IgG1 LALA; also called VH3231/VL7461 IgG
B2: PR002742 (antibody, human IgG1, lambda, L234A L235A, V domains shown)
VH: EVQLVESGGGLVQPGGSLKLSCAASGFTFNTYAMNWVRQASGKGLEWVGRIRSKYNNYATYYADSVKDRFTISRDDSKNTAYLQMNSLKTEDTAVYYCTRHGNFGNSYVSWFAYWGQGTLVTVSS
VL: QAVVTQEPSLTVSPGGTVTLTCRSSTGAVTTSNYANWVQQKPGQAPRGLIGGTNKRAPWTPARFSGSLLGDKAALTLLGAQPEDEAEYFCALWYSNLWVFGGGTKLTVLG
notes: humanized SP34 variant, IgG1 LALA; also called VH3730/VL7461 IgG
B3: PR000512 (antibody, human IgG1, lambda, L234A L235A, V domains shown)
VH: EVQLVESGGGLVQPGGSLKLSCAASGFTFNTYAMNWVRQASGKGLEWVGRIRSKYNNYATYYADSVKDRFTISRDDSKSTLYLQMNSLKTEDTAVYYCVRHGNFGNSYVSWFAYWGQGTLVTVSS
VL: QAVVTQEPSLTVSPGGTVTLTCRSSTGAVTTSNYANWVQQKPGQAPRGLIGGTNKRAPWTPARFSGSLLGDKAALTLLGAQPEDEAEYFCALWYSNLWVFGGGTKLTVLG
notes: humanized SP34 variant, IgG1 LALA; also called VH3731/VL7461 IgG
B4: PR001849 (antibody, human IgG1, lambda, L234A L235A, V domains shown)
VH: EVQLVESGGGLVQPGGSLKLSCAASGFTFSTYAMNWVRQASGKGLEWVGRIRSKYNNYATYYADSVKDRFTISRDDSKSTLYLQMNSLKTEDTAVYYCVRHGNFGNSYVSWFAYWGQGTLVTVSS
VL: QAVVTQEPSLTVSPGGTVTLTCRSSTGAVTTSNYANWVQQKPGQAPRGLIGGTNKRAPWTPARFSGSLLGDKAALTLLGAQPEDEAEYFCALWYSNLWVFGGGTKLTVLG
notes: humanized SP34 variant, IgG1 LALAPG; also called VH3732/VL7461 IgG
B5: PR001848 (antibody, human IgG1, lambda, L234A L235A, V domains shown)
VH: EVQLLESGGGLVQPGGSLRLSCAASGFTFSTYAMNWVRQAPGKGLEWVSRIRSKYNNYATYYADSVKDRFTISRDDSKSTLYLQMNSLRAEDTAVYYCVRHGNFGNSYVSWFAYWGQGTLVTVSS
VL: QAVVTQEPSLTVSPGGTVTLTCRSSTGAVTTSNYANWVQQKPGQAPRGLIGGTNKRAPWTPARFSGSLLGDKAALTLLGAQPEDEAEYFCALWYSNLWVFGGGTKLTVLG
notes: humanized SP34 variant, IgG1 LALAPG; also called VH3232/VL7461 IgG
B6: PR002469 (antibody, human IgG1, lambda, L234A L235A, V domains shown)
VH: EVQLLESGGGLVQPGGSLRLSCAASGFTFNTYAMNWVRQAPGKGLEWVSRIRSKYNNYATYYADSVKDRFTISRDNSKNTLYLQMNSLRAEDTAVYYCAKHGNFGNSYVSWFAYWGQGTLVTVSS
VL: QAVVTQEPSLTVSPGGTVTLTCRSSTGAVTTSNYANWVQQKPGQAPRGLIGGTNKRAPWTPARFSGSLLGDKAALTLLGAQPEDEAEYFCALWYSNLWVFGGGTKLTVLG
notes: humanized SP34 variant, IgG1 LALA; also called VH3230/VL7461 IgG
B7: PR002833 (antibody, human IgG1, lambda, L234A L235A, V domains shown)
VH: EVQLLESGGGLVQPGGSLRLSCAASGFTFSTYAMNWVRQAPGKGLEWVSRIRSKYNNYATYYADSVKDRFTISRDNSKNTLYLQMNSLRAEDTAVYYCVRHGNFGNSYVSWFAYWGQGTLVTVSS
VL: QAVVTQEPSLTVSPGGTVTLTCRSSTGAVTTSNYANWVQQKPGQAPRGLIGGTNKRAPWTPARFSGSLLGDKAALTLLGAQPEDEAEYFCALWYSNLWVFGGGTKLTVLG
notes: humanized SP34 variant, IgG1 LALAPG; also called VH3234/VL7461 IgG
B8: PR002834 (antibody, human IgG1, lambda, L234A L235A, V domains shown)
VH: EVQLLESGGGLVQPGGSLRLSCAASGFTFSTYAMNWVRQAPGKGLEWVSRIRSKYNNYATYYADSVKDRFTISRDDSKSTLYLQMNSLRAEDTAVYYCAKHGNFGNSYVSWFAYWGQGTLVTVSS
VL: QAVVTQEPSLTVSPGGTVTLTCRSSTGAVTTSNYANWVQQKPGQAPRGLIGGTNKRAPWTPARFSGSLLGDKAALTLLGAQPEDEAEYFCALWYSNLWVFGGGTKLTVLG
notes: humanized SP34 variant, IgG1 LALAPG; also called VH3235/VL7461 IgG

target: T1, human CD3 (human, UniProt P07766 23-207; P09693 23-182; P04234 22-171; P20963 22-164); assay: flow cytometry on human pan-T cells; MFI at 7.4 or 10 µg/ml relative to PR000260
T1 construct: whole, on cells; SP34 is described as an anti-human CD3e antibody; also called human TCR/CD3 complex; CD3 on human pan-T cells
Source text: The flow cytometryFACS was used to analyse the binding of the CD3 antibody to CD3-expressing cells, where the CD3-expressing cells could be: CHOK1 cells overexpressing human CD3 or HEK 293 cells (plasmids encoding the ORF of γ, δ, ε, and ζ chains of human-derived CD3 and plasmids encoding the ORF of α and β chains of human TCR were co-transfected with host cells CHOK1 (ATCC, CCL-61) or HEK293 (ATCC, CRL-1573) to construct stable cell lines expressing the structure of the human TCR/CD3 complex); CHOK1 or HEK293 cells overexpressing cynomolgus monkey CD3; human pan-T cells (isolated with the human pan-T cell isolation kit (Miltenyi, #130-096-535) from PBMC); cynomolgus monkey pan-T cells. Specifically, the collected cells were washed twice with PBS containing 2% FBS (FACS buffer), and resuspended with FACS buffer, divided into 96 well plates with 1×10⁵ cells per well, centrifuged at 500 g for 5 minutes. The supernatant was discarded, and 100 μl of pre-gradient diluted CD3 antibody was added, then incubating for 1 hour at room temperature and washing twice with FACS buffer. The cells were resuspended with FACS buffer diluted with secondary antibody Alexa Fluor 488 AffiniPure Goat Anti-Human IgG, Fcγ fragment specific (Jackson ImmunoResearch, #109-545-098), then incubated at room temperature in the dark for 30 minutes. The cells were washed twice with FACS buffer, and resuspended with 200 μl FACS buffer. The fluorescent luminescence signal value were read by flow cytometry (BD FACS CANTOII or ACEA NovoCyte), and the resulted data were processed and analyzed by software FlowJo v10 (FlowJo, LLC). The software GraphPad Prism 8 was used for data processing and graphical analysis, and parameters such as binding curves and EC50 values can be obtained by four-parameter nonlinear fitting.
FIG. 7(A) to (G) show the binding ability of the CD3 antibodies obtained in the Example 4.2 (including PR000260 and its mutants) to human pan-T cells, respectively. The fluorescence intensity MFI of the CD3 antibody binding to human pan-T cells and the relative ratio relative to the initial antibody PR000260 were calculated when the antibody concentration was 7.4 or 10 μg/ml.

T1 sequence (P07766 23-207, chain 1 of 4): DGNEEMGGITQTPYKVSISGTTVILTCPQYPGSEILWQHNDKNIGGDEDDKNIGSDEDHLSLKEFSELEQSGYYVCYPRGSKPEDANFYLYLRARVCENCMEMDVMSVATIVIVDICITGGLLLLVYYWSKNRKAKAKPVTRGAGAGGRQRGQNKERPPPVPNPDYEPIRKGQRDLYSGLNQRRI
T1 sequence (P09693 23-182, chain 2 of 4): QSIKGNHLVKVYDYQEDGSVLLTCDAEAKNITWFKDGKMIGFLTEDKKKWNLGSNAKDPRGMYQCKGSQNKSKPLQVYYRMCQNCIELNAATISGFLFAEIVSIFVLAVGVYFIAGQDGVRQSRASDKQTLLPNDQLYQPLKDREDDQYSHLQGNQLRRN
T1 sequence (P04234 22-171, chain 3 of 4): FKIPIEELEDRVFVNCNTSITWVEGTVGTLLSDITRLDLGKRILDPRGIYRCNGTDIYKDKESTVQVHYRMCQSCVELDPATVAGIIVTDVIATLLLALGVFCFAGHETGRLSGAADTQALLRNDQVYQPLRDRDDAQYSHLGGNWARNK
T1 sequence (P20963 22-164, chain 4 of 4): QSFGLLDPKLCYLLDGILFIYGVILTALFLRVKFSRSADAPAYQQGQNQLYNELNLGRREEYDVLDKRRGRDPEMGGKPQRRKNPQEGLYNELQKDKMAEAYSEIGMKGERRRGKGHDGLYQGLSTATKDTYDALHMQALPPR

Binder | binding result
B1 | binds
B2 | binds
B3 | binds
B4 | binds
B5 | binds
B6 | binds
B7 | binds
B8 | binds
